Laboratory results: publication PMC3398911

What was measured:
[1] = target: GST-RhoC (wild type) (human) (UniProt P08134)
[2] = target: GST-RhoC-43T (human) (UniProt P08134)

B1: GST-XPLN (full length) (enzyme)
chain: MVAKDYPFYLTVKRANCSLELPPASGPAKDAEEPSNKRVKPLSRVTSLANLIPPVKATPLKRFSQTLQRSISFRSESRPDILAPRPWSRNAAPSSTKRRDSKLWSETFDVCVNQMLTSKEIKRQEAIFELSQGEEDLIEDLKLAKKAYHDPMLKLSIMTEQELNQIFGTLDSLIPLHEELLSQLRDVRKPDGSTEHVGPILVGWLPCLSSYDSYCSNQVAAKALLDHKKQDHRVQDFLQRCLESPFSRKLDLWNFLDIPRSRLVKYPLLLREILRHTPNDNPDQQHLEEAINIIQGIVAEINTKTGESECRYYKERLLYLEEGQKDSLIDSSRVLCCHGELKNNRGVKLHVFLFQEVLVITRAVTHNEQLCYQLYRQPIPVKDLLLEDLQDGEVRLGGSLRGAFSNNERIKNFFRVSFKNGSQSQTHSLQANDTFNKQQWLNCIRQAKETVLCAAGQAGVLDSEGSFLNPTTGSRELQGETKLEQMDQSDSESDCSMDTSEVSLDCERMEQTDSSCGNSRHGESNV
B1 showed an XPLN-catalysed mant-nucleotide exchange in vitro, fold stimulation [1] of 1.1 fold and an XPLN-catalysed mant-nucleotide exchange in vitro, fold stimulation [2] of 1.4 fold.
